To fix the notation:
B1: BsAb #D3 (antibody)
chain 1: not shown
chain 2: DIQMTQSPSSLSASVGDRVTITCRTSENIYSYLAWYQQKPGKAPKLLIYNAKTLAEGVPSRFSGSGSGTDFTLTISSLQPEDFATYYCQHHYGIPFTFGQGTKVEIKRTVAAPSVFIFPPSDEQLKSGTASVVCLLNNFYPREAKVQWKVDNALQSGNSQESVTEQDSKDSTYSLSSTLTLSKADYEKHKVYACEVTHQGLSSPVTKSFNRGEC
B2: BsAb #B7 (antibody)
chain 1: not shown
chain 2: B1 chain 2
B3: BsAb #D4 (antibody)
chain 1: not shown
chain 2: B1 chain 2
B4: BsAb #B8 (antibody)
chain 1: not shown
chain 2: B1 chain 2
B5: BsAb #A6 (antibody)
chain 1: EIVLTQSPATLSLSPGERATLSCRASQSVYSYLAWYQQKPGQAPRLLIYDASNRATGIPARFSGSGSGTDFTLTISSLEPEDFAVYYCQQRSNWPPFTFGPGTKVDIKASTKGPSVFPLAPSSKSTSGGTAALGCLVKDYFPEPVTVSWNSGALTSGVHTFPAVLQSSGLYSLSSVVTVPSSSLGTQTYICNVNHKPSNTKVDKKV
chain 2: not shown
chain 3: not shown
chain 4: not shown
B6: BsAb #A7 (antibody)
chain 1: not shown
chain 2: B1 chain 2
chain 3: not shown
chain 4: not shown
B7: BsAb #A8 (antibody)
chain 1: B5 chain 1
chain 2: B1 chain 2
chain 3: not shown
chain 4: not shown
B8: BsAb #C8 (antibody)
chain 1: not shown
chain 2: EIVLTQSPATLSLSPGERATLSCRASQSVYSYLAWYQQKPGQAPRLLIYDASNRATGIPARFSGSGSGTDFTLTISSLEPEDFAVYYCQQRSNWPPFTFGPGTKVDIKGGGGSGGGGSGGGGSDIQMTQSPSSLSASVGDRVTITCRTSENIYSYLAWYQQKPGKAPKLLIYNAKTLAEGVPSRFSGSGSGTDFTLTISSLQPEDFATYYCQHHYGIPFTFGQGTKVEIKRTVAAPSVFIFPPSDEQLKSGTASVVCLLNNFYPREAKVQWKVDNALQSGNSQESVTEQDSKDSTYSLSSTLTLSKADYEKHKVYACEVTHQGLSSPVTKSFNRGEC

One test deals with T1, human TNF alpha (TNFα) (UniProt P01375 77-233). Briefly: SPR; pre-bound with IL23p19.
T1 sequence (P01375 77-233): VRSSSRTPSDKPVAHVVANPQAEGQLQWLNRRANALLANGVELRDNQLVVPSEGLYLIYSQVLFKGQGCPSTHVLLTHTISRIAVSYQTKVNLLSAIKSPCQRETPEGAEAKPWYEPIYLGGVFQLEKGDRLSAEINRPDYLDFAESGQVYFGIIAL
As usually defined, the Kd is the free concentration of one partner at which half of the binding sites on the other are occupied at equilibrium, for simple one-to-one binding. For the molecule B1, the affinity, expressed as Kd, was 0.12 nM.

Turning to B2, the affinity, expressed as Kd, was 0.93 nM. Against the preceding molecule, the Kd is about 7.8-fold higher.

The molecule B3 registered a Kd of 0.41 nM.

B4 displayed a Kd of 0.41 nM.

The next test deals with T2, P19 subunit of human IL-23 (IL23p19) (UniProt Q9NPF7 20-189).
T2 chain: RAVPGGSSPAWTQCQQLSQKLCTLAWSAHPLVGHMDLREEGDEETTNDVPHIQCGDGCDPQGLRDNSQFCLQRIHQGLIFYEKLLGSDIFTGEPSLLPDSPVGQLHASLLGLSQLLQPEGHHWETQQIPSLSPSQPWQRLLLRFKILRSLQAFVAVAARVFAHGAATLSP
The test is described as follows: SPR.
In turn, B5 returned a Kd of 0.04 nM.

As for B1, binding was characterised by a dissociation constant (Kd) of 0.2 nM.

For the molecule B2, the Kd was 0.1 nM. This Kd is about 2-fold lower than that of the molecule before.

B3 showed a Kd of 0.11 nM.

B6 yielded a Kd of 0.08 nM.

B4 yielded a dissociation constant Kd of 0.07 nM.

The molecule B7 registered a Kd of 0.08 nM.

In turn, B8 gave a Kd of 1.66 nM.

A further test concerns the target T1, human TNF alpha (TNFα). The test is described as follows: SPR. On the technique in general: Surface plasmon resonance follows binding to a sensor surface in real time, without labels.
In the case of B5, binding was put at a Kd of 0.39 nM. That is a sub-nanomolar value.

B1 registered a Kd of 0.16 nM.

B2 had a Kd of 0.87 nM.

For the molecule B3, the Kd amounted to 0.49 nM.

For B6, the Kd stood at 0.58 nM.

B4: binding was characterised by a dissociation constant (Kd) of 0.42 nM.

Consider B7, for which the Kd is 1.09 nM. Against the preceding molecule, the Kd is about 2.6-fold higher.

B8 had a Kd of 0.1 nM.
